Data reported in article PMC11518995.

Target: mTOR with the cancer-associated 1455-EWED-1458 duplication, as the mTOR subunit of mTORC1_EWEDdup (human) (UniProt P42345)
Assay: cryo-EM structure; mTORC1_EWEDdup co-expressed and purified as a complex; 1 uM with 20 uM 4EBP1 and 1 mM AMPPNP, cross-linked with 0.2 mM BS3 and 0.03% glutaraldehyde, glycerol gradient, Superose 6; 50 mM HEPES pH 7.5, 250 mM NaCl, 5 mM MgCl2, 1 mM TCEP

mTOR with the cancer-associated 1455-EWED-1458 duplication, as the mTOR subunit of mTORC1_EWEDdup, P42345 1-2549
stoichiometry N: 2
